Reference: article PMC5584161, “Selective compounds enhance osteoblastic activity by targeting HECT domain of ubiquitin ligase Smurf1” (Oncotarget, 2016)

B1: GST-Smurf1 (Smad ubiquitination regulatory factor-1) (enzyme, UniProt Q9HCE7-2 1-731, looked up)
chain: MSNPGTRRNGSSIKIRLTVLCAKNLAKKDFFRLPDPFAKIVVDGSGQCHSTDTVKNTLDPKWNQHYDLYVGKTDSITISVWNHKKIHKKQGAGFLGCVRLLSNAISRLKDTGYQRLDLCKLNPSDTDAVRGQIVVSLQTRDRIGTGGSVVDCRGLLENEGTVYEDSGPGRPLSCFMEEPAPYTDSTGAAAGGGNCRFVESPSQDQRLQAQRLRNPDVRGSLQTPQNRPHGHQSPELPEGYEQRTTVQGQVYFLHTQTGVSTWHDPRIPRDLNSVNCDELGPLPPGWEVRSTVSGRIYFVDHNNRTTQFTDPRLHHIMNHQCQLKEPSQPLPLPSEGSLEDEELPAQRYERDLVQKLKVLRHELSLQQPQAGHCRIEVSREEIFEESYRQIMKMRPKDLKKRLMVKFRGEEGLDYGGVAREWLYLLCHEMLNPYYGLFQYSTDNIYMLQINPDSSINPDHLSYFHFVGRIMGLAVFHGHYINGGFTVPFYKQLLGKPIQLSDLESVDPELHKSLVWILENDITPVLDHTFCVEHNAFGRILQHELKPNGRNVPVTEENKKEYVRLYVNWRFMRGIEAQFLALQKGFNELIPQHLLKPFDQKELELIIGGLDKIDLNDWKSNTRLKHCVADSNIVRWFWQAVETFDEERRARLLQFVTGSTRVPLQGFKALQGSTGAAGPRLFTIHLIDANTDNLPKAHTCFNRIDIPPYESYEKLYEKLLTAVEETCGFAVE
notes: Smurf1, HECT-type ubiquitin ligase; also called GST-tagged Smurf1; source: bacteria-expressed, immobilized on Glutathione-Sepharose 4B beads
B2: UbcH5c (enzyme)
chain: not shown
notes: UbcH5c, ubiquitin-conjugating enzyme (E2) of Smurf1; The methods say the assay is the same as GST-Smurf1 with His-Ub, so a His tag is likely; also called E2; source: prokaryotic expressed, purified

Experiments:
Assay in all cases: pull-down; GST fusion immobilized on Glutathione-Sepharose 4B beads, incubated with the partner for 8 h at 4°C; washed with GST-binding buffer (100 mM NaCl, 50 mM NaF, 2 mM EDTA, 1% NP-40); immunoblotting; also run with B06 and B75 where the paper says they had no effect
Settings in all cases: both partners purified
UbcH7 = molecular target: T1, UbcH7 (UniProt P68036 1-154)
T1 construct: UbcH7, ubiquitin-conjugating enzyme (E2) of Smurf1; The methods say the assay is the same as GST-Smurf1 with His-Ub, so a His tag is likely; also called E2; source: prokaryotic expressed, purified

His-Ub (ubiquitin) = molecular target: T2, His-Ub (ubiquitin) (UniProt P0CG48 1-76)
T2 construct: ubiquitin, single (mono) ubiquitin; also called mono-Ub; single Ub protein

[1] = molecular target: B1

T1 sequence (P68036 whole entry): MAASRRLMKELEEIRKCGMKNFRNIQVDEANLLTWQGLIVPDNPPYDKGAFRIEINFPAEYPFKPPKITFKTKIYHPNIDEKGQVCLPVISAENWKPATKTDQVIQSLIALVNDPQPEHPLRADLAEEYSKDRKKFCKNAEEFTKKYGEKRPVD

Binder | binding result (UbcH7) | binding result (His-Ub (ubiquitin)) | binding result [1]
B1 | binds | binds | 
B2 |  |  | binds
